Measured values: patent US20220064329A1 (Novo Nordisk, published 2022)
Numbering of substitutions follows the chain as printed.

T1: recombinant human activated FVII (FVIIa) (human, UniProt P08709 61-212; P08709 213-466, ten glutamate residues of the Gla domain may be gamma-carboxylated)
T1 sequence 1: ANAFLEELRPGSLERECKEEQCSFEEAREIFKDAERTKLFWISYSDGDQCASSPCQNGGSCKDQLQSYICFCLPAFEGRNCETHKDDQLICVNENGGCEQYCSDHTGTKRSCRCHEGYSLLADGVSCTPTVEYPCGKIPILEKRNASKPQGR
T1 sequence 2: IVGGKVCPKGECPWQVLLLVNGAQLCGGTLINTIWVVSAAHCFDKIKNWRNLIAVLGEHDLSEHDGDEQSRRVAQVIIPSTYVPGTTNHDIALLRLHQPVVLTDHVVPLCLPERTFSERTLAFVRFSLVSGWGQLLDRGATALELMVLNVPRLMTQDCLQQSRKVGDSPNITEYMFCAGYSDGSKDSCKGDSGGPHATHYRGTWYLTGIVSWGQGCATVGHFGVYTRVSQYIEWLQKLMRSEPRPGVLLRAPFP

T2: sTLT1 (SEQ ID No: 3 with six histidine residues added at the C-terminus) (human, UniProt Q86YW5 16-162)
T2 construct: Soluble TLT-1 used in SPR
T2 sequence: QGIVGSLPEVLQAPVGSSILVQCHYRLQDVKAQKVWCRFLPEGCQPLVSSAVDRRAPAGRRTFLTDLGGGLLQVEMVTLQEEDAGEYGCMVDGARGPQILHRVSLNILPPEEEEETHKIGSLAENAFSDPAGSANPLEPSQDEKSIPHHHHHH

B1: biAb0091 (bispecific antibody, human IgG4 S228P, kappa)
heavy 1: QVQLQESGPGLVEPSQTLSLTCTVSGYSITSDSAWSWIRQPPGKKLEWIGYIQYSGSTNYNPSLKSRVTISRDTSKNQFSLKLSSVTAADTAVYYCARSVNYYGNSFAVGYWGQGTLVTVSSASTKGPSVFPLAPCSRSTSESTAALGCLVKDYFPEPVTVSWNSGALTSGVHTFPAVLQSSGLYSLSSVVTVPSSSLGTKTYTCNVDHKPSNTKVDKRVESKYGPPCPPCPAPEFLGGPSVFLFPPKPKDTLMISRTPEVTCVVVDVSQEDPEVQFNWYVDGVEVHNAKTKPREEQFNSTYRVVSVLTVLHQDWLNGKEYKCKVSNKGLPSSIEKTISKAKGQPREPQVYTLPPSQEEMTKNQVSLTCLVKGFYPSDIAVEWESNGQPENNYKTTPPVLDSDGSFLLYSKLTVDKSRWQEGNVFSCSVMHEALHNHYTQKSLSLSLGK
light 1: EIVLTQSPATLSLSPGERATLSCRASQGVSDYLHWYQQKPGQAPRLLIKYASQPATGIPARFSGSGSGTDFTLTISSLEPEDFAVYYCQNGHSFPLTFGQGTKLEIKRTVAAPSVFIFPPSDEQLKSGTASVVCLLNNFYPREAKVQWKVDNALQSGNSQESVTEQDSKDSTYSLSSTLTLSKADYEKHKVYACEVTHQGLSSPVTKSFNRGEC
heavy 2: not shown
light 2: DIVMTQTPLSSPVTLGQPASISCRSSQSLVHRNGNTYFHWLQQRPGQPPRLLIYKVSNRFSGVPDRFSGSGAGTDFTLKISRVEAEDVGVYYCSQSTHVPYTFGQGTKLEIKRTVAAPSVFIFPPSDEQLKSGTASVVCLLNNFYPREAKVQWKVDNALQSGNSQESVTEQDSKDSTYSLSSTLTLSKADYEKHKVYACEVTHQGLSSPVTKSFNRGEC
notes: Duobody, constant domain type H (IgG4): anti-FVII(a) arm mAb0875, anti-TLT-1 arm mAb1049; also called mAb0875 x mAb1049
B2: biAb0097 (bispecific antibody, human IgG4 S228P, kappa)
heavy 1: DVQLQESGPGLVEPSQSLSLTCTVTGYSITSDSAWSWIRQFPGNKLEWMGYIQYSGSTNYNPSLKSRISVTRDTSKNQFFLRLSSVTAEDTATYYCTRSVNYYGNSFAVGYWGQGTSVTVSSASTKGPSVFPLAPCSRSTSESTAALGCLVKDYFPEPVTVSWNSGALTSGVHTFPAVLQSSGLYSLSSVVTVPSSSLGTKTYTCNVDHKPSNTKVDKRVESKYGPPCPPCPAPEFLGGPSVFLFPPKPKDTLMISRTPEVTCVVVDVSQEDPEVQFNWYVDGVEVHNAKTKPREEQFNSTYRVVSVLTVLHQDWLNGKEYKCKVSNKGLPSSIEKTISKAKGQPREPQVYTLPPSQEEMTKNQVSLTCLVKGFYPSDIAVEWESNGQPENNYKTTPPVLDSDGSFLLYSKLTVDKSRWQEGNVFSCSVMHEALHNHYTQKSLSLSLGK
light 1: B1 light 1 with V29I, Q42E, A51T, F83V, A84G, N90S, Q100A, I106L
heavy 2: not shown
light 2: B1 light 2
notes: Duobody, constant domain type H (IgG4): anti-FVII(a) arm mAb0872, anti-TLT-1 arm mAb1047; also called mAb0872 x mAb1047
B3: biAb0092 (bispecific antibody, human IgG4 S228P, kappa)
heavy 1: B2 heavy 1
light 1: B1 light 1 with V29I, Q42E, A51T, F83V, A84G, N90S, Q100A, I106L
heavy 2: not shown
light 2: B1 light 2
notes: Duobody, constant domain type H (IgG4): anti-FVII(a) arm mAb0872, anti-TLT-1 arm mAb1049; also called mAb0872 x mAb1049
B4: biAb0096 (bispecific antibody, human IgG4 S228P, kappa)
heavy 1: B1 heavy 1
light 1: B1 light 1
heavy 2: not shown
light 2: B1 light 2
notes: Duobody, constant domain type H (IgG4): anti-FVII(a) arm mAb0875, anti-TLT-1 arm mAb1047; also called mAb0875 x mAb1047
B5: biAb0012 (bispecific antibody, human IgG4 S228P, kappa)
heavy 1: B2 heavy 1
light 1: B1 light 1 with V29I, Q42E, A51T, F83V, A84G, N90S, Q100A, I106L
heavy 2: not shown
light 2: B1 light 2 with N33Q
notes: Duobody, constant domain type H (IgG4): anti-FVII(a) arm mAb0872, anti-TLT-1 arm mAb1076; also called mAb0872 x mAb1076
B6: biAb0017 (bispecific antibody, human IgG4 S228P, kappa)
heavy 1: B2 heavy 1
light 1: B1 light 1 with V29I, Q42E, A51T, F83V, A84G, N90S, Q100A, I106L
heavy 2: not shown
light 2: B1 light 2 with N33P
notes: Duobody, constant domain type H (IgG4): anti-FVII(a) arm mAb0872, anti-TLT-1 arm mAb1038; also called mAb0872 x mAb1038

The binders below were run against T1, recombinant human activated FVII (FVIIa) (assay: cell-based or functional assay).

Row | Stimulation (fold): FXa generated by FVIIa with lipidated TLT-1 and 100 nM biAb, relative to free FVIIa [fold] | Binder
1 | 11.3 | B1
2 | 17.4 | B2
3 | 11.2 | B3
4 | 12.4 | B4
5 | 22.1 | B5
6 | 13.6 | B6

The binders below were run against T2, sTLT1 (SEQ ID No: 3 with six histidine …) (assay: dissociation constant listed with the stimulatory activities; value of the anti-TLT-1 arm).

Row | Kd [nM] | Binder
7 | 320 | B1
8 | 75 | B2
9 | 320 | B3
10 | 75 | B4
11 | 2.9 | B5
12 | 19 | B6

What follows are binders tested against T1, recombinant human activated FVII (FVIIa) (assay: dissociation constant listed with the stimulatory activities; method not given).

Row | Kd [nM] | Binder
13 | 0.28 | B1
14 | 2.2 | B2
15 | 2.2 | B3
16 | 0.28 | B4
17 | 2.2 | B5
18 | 2.2 | B6
